Experimental data reported in patent US20180369344.

Target: alpha1 antitrypsin (AAT), P01009
Sequence (P01009 whole entry, looked up): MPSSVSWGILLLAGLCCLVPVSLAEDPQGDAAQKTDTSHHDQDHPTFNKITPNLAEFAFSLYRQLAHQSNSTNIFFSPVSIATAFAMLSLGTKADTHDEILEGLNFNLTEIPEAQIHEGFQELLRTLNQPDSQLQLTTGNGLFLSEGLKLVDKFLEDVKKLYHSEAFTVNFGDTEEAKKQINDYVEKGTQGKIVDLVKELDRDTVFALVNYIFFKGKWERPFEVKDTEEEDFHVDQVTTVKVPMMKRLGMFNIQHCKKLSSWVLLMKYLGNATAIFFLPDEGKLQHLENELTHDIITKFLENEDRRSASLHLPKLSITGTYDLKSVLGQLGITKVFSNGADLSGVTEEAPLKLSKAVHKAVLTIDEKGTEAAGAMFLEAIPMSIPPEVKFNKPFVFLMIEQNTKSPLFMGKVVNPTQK

B1: wildtype Cela2a (protein)
chain: VVGGEEARPNSWPWQVSLQYSSNGKWYHTCGGSLIANSWVLTAAHCISSSRTYRVGLGRHNLYVAESGSLAVSVSKIVVHKDWNSNQISKGNDIALLKLANPVSLTDKIQLACLPPAGTILPNNYPCYVTGWGRLQTNGAVPDVLQQGRLLVVDYATCSSSAWWGSSVKTSMICAGGDGVISSCNGDSGGPLNCQASDGRWQVHGIVSFGSRLGCNYYHKPSVFTRVSNYIDWINSVIANN
cleavage of alpha1-antitrypsin: Cela2a cleaves alphal-antitrypsin.
